Laboratory results from paper PMC4042526.

Target: Tbx20^eh1mut-EGFP (mouse) (UniProt Q9ES03)
Experiment: affinity purification with mass spectrometry

UniProt Q9ES03, sequence (Q9ES03 whole entry F18L/S19I): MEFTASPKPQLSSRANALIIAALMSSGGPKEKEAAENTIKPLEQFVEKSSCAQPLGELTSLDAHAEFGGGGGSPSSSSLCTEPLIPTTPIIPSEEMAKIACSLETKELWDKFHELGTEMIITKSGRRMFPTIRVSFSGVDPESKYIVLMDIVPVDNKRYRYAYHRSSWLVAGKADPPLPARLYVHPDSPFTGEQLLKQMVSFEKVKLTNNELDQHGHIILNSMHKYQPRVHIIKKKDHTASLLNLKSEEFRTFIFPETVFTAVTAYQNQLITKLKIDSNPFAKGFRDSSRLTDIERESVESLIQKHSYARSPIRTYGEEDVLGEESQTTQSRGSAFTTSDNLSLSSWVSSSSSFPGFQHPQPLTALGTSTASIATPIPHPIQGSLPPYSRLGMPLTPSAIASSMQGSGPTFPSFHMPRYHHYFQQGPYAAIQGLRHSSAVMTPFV

Row | fold decrease in eh1mut against wild-type Tbx20 (MS1-based) [fold] | Substance
1 | > 10 | Transducin-like enhancer of split 3 (from UniProt Q04726 1-772) (natural protein)
2 | > 10 | Transducin-like enhancer of split 1 (from UniProt Q04724 1-770) (natural protein)
